{"source": "paper PMC3976988", "about": "(Nature structural & molecular biology, 2013)", "target": "exosome core (S. cerevisiae, UniProt P46948 1-246; Q05636 1-305; Q12277 1-265; P25359 1-394; P48240 1-250; P53256 …)", "experiment": "tandem affinity purification + ion-exchange chromatography", "data": [{"binder": "Rrp44 (enzyme, S. cerevisiae, UniProt Q08162 1-1001, looked up) MSVPAIAPRRKRLADGLSVTQKVFVRSRNGGATKIVREHYLRSDIPCLSRSCTKCPQIVVPDAQNELPKFILSDSPLELSAPIGKHYVVLDTNVVLQAIDLLENPNCFFDVIVPQIVLDEVRNKSYPVYTRLRTLCRDSDDHKRFIVFHNEFSEHTFVERLPNETINDRNDRAIRKTCQWYSEHLKPYDINVVLVTNDRLNREAATKEVESNIITKSLVQYIELLPNADDIRDSIPQMDSFDKDLERDTFSDFTFPEYYSTARVMGGLKNGVLYQGNIQISEYNFLEGSVSLPRFSKPVLIVGQKNLNRAFNGDQVIVELLPQSEWKAPSSIVLDSEHFDVNDNPDIEAGDDDDNNESSSNTTVISDKQRRLLAKDAMIAQRSKKIQPTAKVVYIQRRSWRQYVGQLAPSSVDPQSSSTQNVFVILMDKCLPKVRIRTRRAAELLDKRIVISIDSWPTTHKYPLGHFVRDLGTIESAQAETEALLLEHDVEYRPFSKKVLECLPAEGHDWKAPTKLDDPEAVSKDPLLTKRKDLRDKLICSIDPPGCVDIDDALHAKKLPNGNWEVGVHIADVTHFVKPGTALDAEGAARGTSVYLVDKRIDMLPMLLGTDLCSLKPYVDRFAFSVIWELDDSANIVNVNFMKSVIRSREAFSYEQAQLRIDDKTQNDELTMGMRALLKLSVKLKQKRLEAGALNLASPEVKVHMDSETSDPNEVEIKKLLATNSLVEEFMLLANISVARKIYDAFPQTAMLRRHAAPPSTNFEILNEMLNTRKNMSISLESSKALADSLDRCVDPEDPYFNTLVRIMSTRCMMAAQYFYSGAYSYPDFRHYGLAVDIYTHFTSPIRRYCDVVAHRQLAGAIGYEPLSLTHRDKNKMDMICRNINRKHRNAQFAGRASIEYYVGQVMRNNESTETGYVIKVFNNGIVVLVPKFGVEGLIRLDNLTEDPNSAAFDEVEYKLTFVPTNSDKPRDVYVFDKVEVQVRSVMDPITSKRKAELLLK", "values": [{"measurement": "stoichiometry N", "value": 1, "unit": "molar ratio"}]}]}
